The results in this text go back to patent publication US11066655B2, “RNA polymerase, methods of purification and methods of use” (President and Fellows of Harvard College, priority 2013, dated 2021).

Holding throughout (format): biochemical
Assay [1] deals with E. coli total aminoacyl-tRNA synthetases. As to the kind of experiment: tRNA aminoacylation assay of RNAP products. The settings on record: for desired (functional) tRNA in total RNA products: without gel extraction, maximum charging at 30 min. The procedure:
(§1) FIGS. 11A-11B depict synthesis of tRNA^Arg by Syn5 and T7 RNA polymerase. A) Synthesis of tRNA^Arg at analytical scale by various amounts of Syn5 and T7 RNA polymerase. Using radioactively labeled CTP, the tRNA^Arg and N+1 product (as marked) produced by 22, 67, 200 nM Syn5 and T7 RNA polymerase at 37° C. are shown. […] The DNA encoding E. coli tRNA^ArgACG is directly downstream of a Syn5 or T7 promoter for the cognate RNA polymerase to synthesize run-off tRNA transcript. B) Synthesis of tRNA^Arg at preparative scale by Syn5 and T7 RNA polymerase. The sequencing gel is showing the analysis of the total RNA products by Syn5 and T7 RNAP at 37° C. in a 200 µl reaction. RNAs were purified by either ZYMO RNA clean kit or phenol/chloroform extraction followed by ethanol precipitation (P/C/E), as noted on top of the gel. The native tRNA^Arg (with modifications) overexpressed and purified from E. coli cells was used as a size marker. The two major bands in the total RNAs are tRNA^Arg and N+1 product as marked.
tRNA Aminoacylation Assay tRNA aminoacylation assay was performed as described previously (Tan et al.). A reaction containing 100 mM Tris-HCl, pH 7.5, 30 mM KCl, 12 mM MgCl2, 0.5 mM DTT, 4 mM ATP, 0.2 […]RNA (purified native E. coli tRNA^Arg (Zhu et al. (2012)), or purified tRNA^Arg transcripts from Syn5 or T7 RNAP reaction using RNA Clean & Concentrator™-5 kit), 15 µM [^3H] arginine (15 Ci/mmol), and 4 µM E. coli total aminoacyl-tRNA synthetases was incubated at 37° C. for the indicated time period. 5 µl reaction mixtures were spotted onto Whatman DE(81) filters and reactions stopped by 10% TCA solution containing 0.5 mM arginine. The filters were washed twice with 10% TCA and once with ethanol, and then dried. The amount of amino acid charged to tRNA was determined by measuring radioactivity remained on the filters.

Assay [2] concerns DNA templates S5P-tDNAR or T7P-tDNAR. Description: Synthesis of tRNA^Arg at preparative scale, sequencing gel. The settings on record: 200 µl reaction, 37° C. The method, then:
as §1, with “RNAs were purified by either ZYMO RNA clean kit or phenol/chloroform extraction followed by ethanol precipitation (P/C/E), as noted on top of the gel. The native tRNA^Arg (with modifications) overexpressed and purified from E. coli cells was used as a size marker. The two major bands in the total RNAs are tRNA^Arg and N+1 product as marked.” left out
For the results shown in FIG. 11A, reaction mixtures (10 μl) containing 40 mM Tris-HCl pH 8.0, 6 mM MgCl2, 2 mM spermidine, 10 mM DTT, 200 µM[…]P, GTP and UTP, 10 µM [[…]-^32P]CTP, 1.5 U/µl RNaseOUT™ recombinant ribonuclease inhibitor, 0.5 μM DNA templates S5P-tDNAR or T7P-tDNAR, and various amount of Syn5 or T7 RNAP were incubated at 37° C. for 30 min before adding of one unit of DNase I to each reaction mixture and an additional incubation of 15 min at 37° C. […] After electrophoresis, gels were dried and analyzed using a Fuji BAS 1000 Bioimaging Analyzer. […] RNA quantification was based on OD260 measurement using NANOPHOTOMETER (IMPLEN). […]

The test system of assay [3] is DNA templates with Syn5 promoter. Description: Gel assay of transcription products with MgCl2, FeCl2 or MnCl2 as cofactor. The procedure: FIG. 6 depicts a comparison of Syn5 RNAP transcription products in the presence of MgCl2, FeCl2 or MnCl2 on denaturing gels. Reactions contained 200 µM ATP, GTP, UTP and 10 µM[…]-^32P]CTP, 50 nM Syn5 RNAP, DNA templates (1 µM template as shown in FIG. 3A for 71 nt runoff transcript, 4 nM template 3 as shown in FIG. 3C for 225 nt product, or 1 µM template 1 as shown in FIG. 3B for 37 nt runoff transcript).
For the gel assay results shown in FIGS. 1, 2, 3, and 13, reaction mixtures (20 μl) contained 40 mM Tris-HCl (pH 7.9), 6 mM MgCl2, 2 mM spermidine, 10 mM DTT, 200 µM[…]P, GTP and UTP, 10 µM [[…]-^32P]CTP, 1.5 U/µl RNaseOUT™ recombinant ribonuclease inhibitor (Invitrogen), 100 nM Syn5 or T7 RNAP, and DNA templates as described in the figure legends (either 2 nM phage genomic DNA, 4 nM purified PCR products, or 1 µM synthetic dsDNA fragments). Reaction mixtures were incubated at 24° C. for 30 min. The reaction mixtures described in FIG. 6 contained 40 mM Tris-HCl (pH 8.0), 200 µM[…]P, GTP and UTP, 10 µM [[…]-^32P]CTP, 1.5 U/µl RNaseOUT™, 50 nM Syn5 RNAP, DNA templates, and various amounts of MgCl2, FeCl2, MnCl2 and KCl as described in the figure legends. After 30 min incubations at 24° C., one unit of RQ1 RNase-Free DNase (Promega) was added to each reaction mixture and incubated for an additional 20 min at 37° C. to remove the DNA templates. Reactions were then terminated by the addition of 8 µl of loading dye containing 95% formamide and 40 mM EDTA. Samples were then heated at 90° C. for 1 min and loaded onto either 10% or 25% TBE-Urea denaturing gels. After electrophoresis, gels were dried and analyzed using a Fuji BAS 1000 Bioimaging Analyzer.

Consider “T7 RNAP: RNA polymerase encoded by bacteriophage T7, from New England Biolabs [reference compound]”, for which the “desired (functional) tRNA in total RNA products” value in assay [1] turned out to be 15%. For the same molecule, the “N+1 products in total products” value in assay [2] is on record as “more than 50%”.

B1: Syn5 RNAP: single subunit DNA-dependent RNA polymerase from marine cyanophage Syn5, amino acid sequence SEQ ID NO:23 (protein)
chain: MSFDLIARQLQRETEAAELARKRLQDARREANERSYASSNIESRKAIATFLDPIAQRIGERLFTLRRGTGAVDAAEVYKHLKNADHHHLALITMKTALDVLGKDPEPQIQQLTTAIGRNIQLELRLTYYAEENPELYKQASRFFHAGTGTRQKATVIKLKFNREGIEWDQWSRVTCHKVGQWLMLAMADVTGWIERATDRTSGGRKTKTRICYSREFLQHRDTILAAAEQLAFCQWPMLCPPIEWSNDHNGGYLSEQIRRVNPLIRKTGPLGTRKQGDIPLAMLNNLQGQAYKVNPEVLDIANHCYESNVTVGKFIRHAPLPVPPSPGEDCTEDQLTAYKRARREAEDFNAQISQKNWRTTEVMYVARKYADEASFWMPASFDYRGRVYFLNTALNPQGTDFDKALLYFAEEGPVNEWWLSFHVATTYGLDKETMVNRVQWARDNHELIDRIASDPVRHTEWHDADEPWCFLAACLEYKACVIDGTKQTSGLPIGIDATCSGLQHLAAMTRCGRTAALVNVTPTDKPADAYKTVAQASLKHLPKEQHEWITRKVTKRPVMCTPYGVTMSSARGYIRDQLVKDGHKEDLRSPGVLNGIVKAIFNEAIPEVIPGPVQVMAWLKRSAGQIIDRGDSTITWTTPSGFEVVQDLKKSKTYEVKTRIMGGARIKLQVGDGFTDEPDRDHHKSALAPNVVHSNDASLLHLTFAFWDKPFTVIHDCVLGRSCDMDQMGSDIRLHFAEMYKADVMQDWADQVGVELPVDLIKNTLDIDSVNQSLYFFS
modifications: Amino acid sequence of a cyanophage Syn5 RNAP
Turning to B1, the “transcription with ferrous as cofactor” value in assay [3] (2 mM FeCl2) was “produce a 71 nt runoff transcript identical to that produced in the presence of MgCl2”. Besides, the “longer transcripts (e.g. 225 nt) in the presence of iron” value in assay [3] (FeCl2) is listed as “did not produce longer transcripts”. Further, the “maximum yield of short runoff products” value in assay [3] (manganese 0.25 to 1 mM versus magnesium) is on record as “higher in the presence of manganese”. Moreover, the “N+1 runoff product” value in assay [3] (manganese versus magnesium) is “significantly higher with manganese than that with magnesium”. Besides, the “efficiency of iron as a cofactor” value in assay [3] (versus magnesium) is given as “several times less than that of magnesium”. Further, the “amino acid charging activity of products” value in assay [1] ([3H] arginine, 37° C.) was “much higher than that obtained from the T7 RNAP reaction”. The “desired (functional) tRNA in total RNA products” value in assay [1] came to 40%. Also, the “N+1 products in total products” value in assay [2] is listed as “negligible”.
